Tests used:
Sc CTD = target: T1, Sc CTD (Saccharomyces cerevisiae, UniProt P48527 414-492); test: filter binding; 25C; n=1.6; 100 mM KCl, 5 mM MgCl2, 20 mM Tris-HCl pH 7.5, 5 mM DTT, 0.1 mg/ml BSA, 10% glycerol, 5 pM RNA, 30 min, 25C or 37C; nitrocellulose/nylon filter; settings: protein: recombinant; label: 5'-32P
T1 sequence: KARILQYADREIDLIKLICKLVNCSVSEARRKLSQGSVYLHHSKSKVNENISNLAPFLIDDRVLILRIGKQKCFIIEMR

CYT-18 NTDs = target: T2, CYT-18 NTDs (Neurospora crassa, UniProt P12063 33-417); test: filter binding; 25C; 100 mM KCl, 5 mM MgCl2, 20 mM Tris-HCl pH 7.5, 5 mM DTT, 0.1 mg/ml BSA, 10% glycerol, 5 pM RNA, 30 min, 25C or 37C; nitrocellulose/nylon filter; settings: protein: recombinant; tags: N-terminal 6xHis, TEV-cleaved; extra N-terminal Gly; chain copies: 2; label: 5'-32P
T2 sequence: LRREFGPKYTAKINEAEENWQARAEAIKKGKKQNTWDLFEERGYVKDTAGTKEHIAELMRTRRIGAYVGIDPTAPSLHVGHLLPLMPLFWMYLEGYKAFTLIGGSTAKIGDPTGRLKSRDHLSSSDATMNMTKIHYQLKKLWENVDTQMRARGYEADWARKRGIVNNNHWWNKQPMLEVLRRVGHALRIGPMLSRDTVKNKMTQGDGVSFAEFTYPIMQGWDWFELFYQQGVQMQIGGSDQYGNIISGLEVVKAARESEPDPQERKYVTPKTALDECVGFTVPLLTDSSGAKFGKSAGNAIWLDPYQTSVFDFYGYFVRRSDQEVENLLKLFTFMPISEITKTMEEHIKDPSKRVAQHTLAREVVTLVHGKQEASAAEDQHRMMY

In the case of UUUUUUUUUUUUUUUUUUUUUUUUUUUUUU (ssRNA) [poly(U)30], the “apparent K (half saturation)” value (Sc CTD) is reported as 1000 nM and the binding result (CYT-18 NTDs) is reported as “no binding”.

Reference: paper PMC4275181, “Evolution of RNA-Protein Interactions: Non-Specific Binding Led to RNA Splicing Activity of Fungal Mitochondrial Tyrosyl-tRNA Synthetases”
